Test [1] addresses acetylated, soluble type I collagen from rat tail, natively folded (triple-helical) (rat) (UniProt P02454).
The target in test [2] is gelatin derived from type I collagen from rat tail (acetylated collagen denatured at 95 °C for 10 min) (rat) (UniProt P02454).

Turning to “ColG collagenase unit from Clostridium histolyticum (from UniProt Q9X721 119-789) (enzyme)”, the KM of degradation of natively folded type I collagen (Michaelis-Menten kinetics, discontinuous cleavage assay with fluorescamine detection of neo-N-termini, 25 °C) in test [1] worked out at 3.4 µM. The KM of gelatin degradation (Michaelis-Menten kinetics, discontinuous cleavage assay with fluorescamine detection of neo-N-termini, 25 °C) in test [2] turned out to be 1.35 µM.

With “ColQ1 collagenase unit (Y94-G765) from Bacillus cereus strain Q1 (from UniProt B9J3S4 94-765) (enzyme)”, the KM of degradation of natively folded type I collagen (Michaelis-Menten kinetics, discontinuous cleavage assay with fluorescamine detection of neo-N-termini, 25 °C) in test [1] turned out to be 1.72 µM. For the same substance, in test [2], the KM of gelatin degradation (Michaelis-Menten kinetics, discontinuous cleavage assay with fluorescamine detection of neo-N-termini, 25 °C) was 1.36 µM.

For the origin of these results see publication PMC7893005.
